From PMC6629125, “Lysyl oxidase–like 2 (LOXL2)–mediated cross-linking of tropoelastin” (The FASEB Journal, 2019)

Molecular target: T1, full-length lysyl oxidase-like 2 (FL-LOXL2), recombinant human (human, UniProt Q9Y4K0 26-774)
T1 construct: Lysyl oxidase-like 2 (LOXL2), human, full-length cDNA in pcDNA3.1-myc-His, amplified from the start ATG; the protein was secreted by CHO cells; also called LOX-like 2; source: DHFR-deficient CHO cells, transfected, secreted into Opti-MEM; purified (HisTrap, gel filtration)
T1 sequence (looked up): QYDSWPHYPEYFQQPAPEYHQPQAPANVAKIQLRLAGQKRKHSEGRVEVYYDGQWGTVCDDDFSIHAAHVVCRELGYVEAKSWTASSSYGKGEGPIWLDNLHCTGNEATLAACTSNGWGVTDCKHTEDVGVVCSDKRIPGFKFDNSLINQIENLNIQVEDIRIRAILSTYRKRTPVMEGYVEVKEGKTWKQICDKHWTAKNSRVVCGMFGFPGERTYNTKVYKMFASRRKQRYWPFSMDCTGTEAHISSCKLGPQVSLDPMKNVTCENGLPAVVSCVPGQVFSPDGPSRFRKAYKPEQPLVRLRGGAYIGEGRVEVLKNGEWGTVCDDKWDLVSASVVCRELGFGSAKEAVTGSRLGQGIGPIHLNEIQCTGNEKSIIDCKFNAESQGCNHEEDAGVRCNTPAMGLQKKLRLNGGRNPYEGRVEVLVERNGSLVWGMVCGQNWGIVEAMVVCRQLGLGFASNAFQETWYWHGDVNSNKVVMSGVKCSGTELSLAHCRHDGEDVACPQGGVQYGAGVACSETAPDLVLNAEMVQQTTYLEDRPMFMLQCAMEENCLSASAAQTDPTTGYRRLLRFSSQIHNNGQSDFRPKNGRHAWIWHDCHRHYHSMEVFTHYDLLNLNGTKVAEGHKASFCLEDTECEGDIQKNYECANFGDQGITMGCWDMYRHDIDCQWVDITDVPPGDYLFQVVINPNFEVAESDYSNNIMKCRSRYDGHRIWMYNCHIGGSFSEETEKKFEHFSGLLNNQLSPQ
Experiment: SPR; ProteOn XPR36; LOXL2 amine-coupled on a GLC chip; TE as analyte, serial 1:1 dilution from 830 nM; 10 mM Na-HEPES, 150 mM NaCl, 2 mM CaCl2, 0.05% Tween 20, pH 7.4, 25°C; steady-state analysis
Details: both partners purified

Kd: 146 nM
B1: human tropoelastin, isoform 2 (natural protein, UniProt P15502-2 27-724, looked up)
chain: GGVPGAIPGGVPGGVFYPGAGLGALGGGALGPGGKPLKPVPGGLAGAGLGAGLGAFPAVTFPGALVPGGVADAAAAYKAAKAGAGLGGVPGVGGLGVSAGAVVPQPGAGVKPGKVPGVGLPGVYPGGVLPGARFPGVGVLPGVPTGAGVKPKAPGVGGAFAGIPGVGPFGGPQPGVPLGYPIKAPKLPGGYGLPYTTGKLPYGYGPGGVAGAAGKAGYPTGTGVGPQAAAAAAAKAAAKFGAGAAGVLPGVGGAGVPGVPGAIPGIGGIAGVGTPAAAAAAAAAAKAAKYGAAAGLVPGGPGFGPGVVGVPGAGVPGVGVPGAGIPVVPGAGIPGAAVPGVVSPEAAAKAAAKAAKYGARPGVGVGGIPTYGVGAGGFPGFGVGVGGIPGVAGVPGVGGVPGVGGVPGVGISPEAQAAAAAKAAKYGVGTPAAAAAKAAAKAAQFGLVPGVGVAPGVGVAPGVGVAPGVGLAPGVGVAPGVGVAPGVGVAPGIGPGGVAAAAKSAAKVAAKAQLRAAAGLGAGIPGLGVGVGVPGLGVGAGVPGLGVGAGVPGFGAVPGALAAAKAAKYGAAVPGVLGGLGALGGVGIPGGVVGAGPAAAAAAAKAAAKAAQFGLVGAAGLGGLGVGGLGVPGVGGLGGIPPAAAAKAAKYGAAGLGGVLGGAGQFPLGGVAARPGFGLSPIFPGGACLGKACGRKRK
notes: also called TE; source: E. coli, purified (acetone/buffer extraction, filtration, dialysis, freeze drying)
